What was measured:
[1] = target: wild-type GDAP1 (GDAP1Δ303–358) (human) (UniProt Q8TB36); assay: batch-mode SAXS; concentration range 1–4 mg/ml, P12 beamline EMBL/DESY
[2] = target: the molecule itself; assay: SEC-SAXS; Arg310 mutants in GDAP1Δ319–358, at lower concentration than all the other mutants; BioSEC3-300 column, 25 mM HEPES pH 7.5, 300 mM NaCl, +15°C; two peaks (dimer and monomer)
[3] = target: the molecule itself; assay: SEC-SAXS; variants in GDAP1Δ303–358; 100 μl at 1.7–36 mg/ml (maximum concentration for each variant) injected onto a BioSEC3-300 column, 25 mM HEPES pH 7.5, 300 mM NaCl, +15°C; top of the peak analysed

Sequence of wild-type GDAP1 (GDAP1Δ303–358) (Q8TB36 whole entry, stated change not applied, the tested form may be a part): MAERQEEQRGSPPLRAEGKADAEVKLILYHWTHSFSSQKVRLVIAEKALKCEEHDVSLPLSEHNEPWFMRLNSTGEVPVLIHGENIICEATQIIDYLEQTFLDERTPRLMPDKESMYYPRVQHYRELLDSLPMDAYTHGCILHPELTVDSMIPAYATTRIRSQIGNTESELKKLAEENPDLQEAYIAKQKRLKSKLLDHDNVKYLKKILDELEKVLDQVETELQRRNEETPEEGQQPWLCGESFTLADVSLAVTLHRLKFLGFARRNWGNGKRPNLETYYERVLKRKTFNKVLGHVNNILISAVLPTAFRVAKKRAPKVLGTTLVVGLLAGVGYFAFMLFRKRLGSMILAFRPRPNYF

| Molecule | stoichiometry N [3] | other results |
| --- | --- | --- |
| wild-type GDAP1 (GDAP1Δ303–358) (from UniProt Q8TB36-1 1-302) (domain or fragment) | – | stoichiometry N [1]: 2 |
| GDAP1Δ319–358 R310Q (domain or fragment, human, UniProt Q8TB36-1 1-318, looked up, human GDAP1 lacking residues 319-358 (GDAP1Δ319–358) with the CMT-linked mutation R310Q; CMT disease variant; eluted as dimer (main peak) and monomer; source: E. coli BL21(DE3), autoinduction, purified (Ni-NTA, TEV cleavage, reverse Ni-NTA, SEC); not shown: His6, N-terminal, cleaved) MAERQEEQRGSPPLRAEGKADAEVKLILYHWTHSFSSQKVRLVIAEKALKCEEHDVSLPLSEHNEPWFMRLNSTGEVPVLIHGENIICEATQIIDYLEQTFLDERTPRLMPDKESMYYPRVQHYRELLDSLPMDAYTHGCILHPELTVDSMIPAYATTRIRSQIGNTESELKKLAEENPDLQEAYIAKQKRLKSKLLDHDNVKYLKKILDELEKVLDQVETELQRRNEETPEEGQQPWLCGESFTLADVSLAVTLHRLKFLGFARRNWGNGKRPNLETYYERVLKRKTFNKVLGHVNNILISAVLPTAFQVAKKRAPK | – | stoichiometry N [2]: 2 |
| GDAP1Δ319–358 R310W (domain or fragment, human, UniProt Q8TB36-1 1-318, looked up, human GDAP1 lacking residues 319-358 (GDAP1Δ319–358) with the CMT-linked mutation R310W; CMT disease variant; eluted as monomer (highest peak) and dimer; source: E. coli BL21(DE3), autoinduction, purified (Ni-NTA, TEV cleavage, reverse Ni-NTA, SEC); not shown: His6, N-terminal, cleaved) MAERQEEQRGSPPLRAEGKADAEVKLILYHWTHSFSSQKVRLVIAEKALKCEEHDVSLPLSEHNEPWFMRLNSTGEVPVLIHGENIICEATQIIDYLEQTFLDERTPRLMPDKESMYYPRVQHYRELLDSLPMDAYTHGCILHPELTVDSMIPAYATTRIRSQIGNTESELKKLAEENPDLQEAYIAKQKRLKSKLLDHDNVKYLKKILDELEKVLDQVETELQRRNEETPEEGQQPWLCGESFTLADVSLAVTLHRLKFLGFARRNWGNGKRPNLETYYERVLKRKTFNKVLGHVNNILISAVLPTAFWVAKKRAPK | – | stoichiometry N [2]: 2 |
| GDAP1Δ303–358 R120Q (domain or fragment, human, UniProt Q8TB36-1 1-302, looked up, human GDAP1 lacking residues 303-358 (GDAP1Δ303–358) with the CMT-linked mutation R120Q; CMT disease variant; source: E. coli BL21(DE3), autoinduction, purified (Ni-NTA, TEV cleavage, reverse Ni-NTA, SEC); not shown: His6, N-terminal, cleaved) MAERQEEQRGSPPLRAEGKADAEVKLILYHWTHSFSSQKVRLVIAEKALKCEEHDVSLPLSEHNEPWFMRLNSTGEVPVLIHGENIICEATQIIDYLEQTFLDERTPRLMPDKESMYYPQVQHYRELLDSLPMDAYTHGCILHPELTVDSMIPAYATTRIRSQIGNTESELKKLAEENPDLQEAYIAKQKRLKSKLLDHDNVKYLKKILDELEKVLDQVETELQRRNEETPEEGQQPWLCGESFTLADVSLAVTLHRLKFLGFARRNWGNGKRPNLETYYERVLKRKTFNKVLGHVNNILIS | 2 | – |
| GDAP1Δ303–358 A247V (domain or fragment, human, UniProt Q8TB36-1 1-302, looked up, human GDAP1 lacking residues 303-358 (GDAP1Δ303–358) with the CMT-linked mutation A247V; CMT disease variant; source: E. coli BL21(DE3), autoinduction, purified (Ni-NTA, TEV cleavage, reverse Ni-NTA, SEC); not shown: His6, N-terminal, cleaved) MAERQEEQRGSPPLRAEGKADAEVKLILYHWTHSFSSQKVRLVIAEKALKCEEHDVSLPLSEHNEPWFMRLNSTGEVPVLIHGENIICEATQIIDYLEQTFLDERTPRLMPDKESMYYPRVQHYRELLDSLPMDAYTHGCILHPELTVDSMIPAYATTRIRSQIGNTESELKKLAEENPDLQEAYIAKQKRLKSKLLDHDNVKYLKKILDELEKVLDQVETELQRRNEETPEEGQQPWLCGESFTLVDVSLAVTLHRLKFLGFARRNWGNGKRPNLETYYERVLKRKTFNKVLGHVNNILIS | 2 | – |
| GDAP1Δ303–358 H256R (domain or fragment, human, UniProt Q8TB36-1 1-302, looked up, human GDAP1 lacking residues 303-358 (GDAP1Δ303–358) with the CMT-linked mutation H256R; CMT disease variant; source: E. coli BL21(DE3), autoinduction, purified (Ni-NTA, TEV cleavage, reverse Ni-NTA, SEC); not shown: His6, N-terminal, cleaved) MAERQEEQRGSPPLRAEGKADAEVKLILYHWTHSFSSQKVRLVIAEKALKCEEHDVSLPLSEHNEPWFMRLNSTGEVPVLIHGENIICEATQIIDYLEQTFLDERTPRLMPDKESMYYPRVQHYRELLDSLPMDAYTHGCILHPELTVDSMIPAYATTRIRSQIGNTESELKKLAEENPDLQEAYIAKQKRLKSKLLDHDNVKYLKKILDELEKVLDQVETELQRRNEETPEEGQQPWLCGESFTLADVSLAVTLRRLKFLGFARRNWGNGKRPNLETYYERVLKRKTFNKVLGHVNNILIS | 2 | – |
| GDAP1Δ303–358 R161H (domain or fragment, human, UniProt Q8TB36-1 1-302, looked up, human GDAP1 lacking residues 303-358 (GDAP1Δ303–358) with the CMT-linked mutation R161H; CMT disease variant; source: E. coli BL21(DE3), autoinduction, purified (Ni-NTA, TEV cleavage, reverse Ni-NTA, SEC); not shown: His6, N-terminal, cleaved) MAERQEEQRGSPPLRAEGKADAEVKLILYHWTHSFSSQKVRLVIAEKALKCEEHDVSLPLSEHNEPWFMRLNSTGEVPVLIHGENIICEATQIIDYLEQTFLDERTPRLMPDKESMYYPRVQHYRELLDSLPMDAYTHGCILHPELTVDSMIPAYATTRIHSQIGNTESELKKLAEENPDLQEAYIAKQKRLKSKLLDHDNVKYLKKILDELEKVLDQVETELQRRNEETPEEGQQPWLCGESFTLADVSLAVTLHRLKFLGFARRNWGNGKRPNLETYYERVLKRKTFNKVLGHVNNILIS | 2 | – |
| GDAP1Δ303–358 R282H (domain or fragment, human, UniProt Q8TB36-1 1-302, looked up, human GDAP1 lacking residues 303-358 (GDAP1Δ303–358) with the CMT-linked mutation R282H; CMT disease variant; source: E. coli BL21(DE3), autoinduction, purified (Ni-NTA, TEV cleavage, reverse Ni-NTA, SEC); not shown: His6, N-terminal, cleaved) MAERQEEQRGSPPLRAEGKADAEVKLILYHWTHSFSSQKVRLVIAEKALKCEEHDVSLPLSEHNEPWFMRLNSTGEVPVLIHGENIICEATQIIDYLEQTFLDERTPRLMPDKESMYYPRVQHYRELLDSLPMDAYTHGCILHPELTVDSMIPAYATTRIRSQIGNTESELKKLAEENPDLQEAYIAKQKRLKSKLLDHDNVKYLKKILDELEKVLDQVETELQRRNEETPEEGQQPWLCGESFTLADVSLAVTLHRLKFLGFARRNWGNGKRPNLETYYEHVLKRKTFNKVLGHVNNILIS | 2 | – |

From PMC10104300, “Conserved intramolecular networks in GDAP1 are closely connected to CMT-linked mutations and protein stability” (PLOS ONE, 2023)
